Results reported in paper PMC4351732 (Structure (London, England : 1993), 2015).

Target: the molecule itself
Assay: crystal structure

B1: human NAPE-hydrolyzing phospholipase D (NAPE-PLD), truncated form Δ47 (D47 to F393) (enzyme, UniProt Q6IQ20 47-393, looked up)
chain: DYRLEEDVTKSKKGKDGRFVNPWPTWKNPSIPNVLRWLIMEKDHSSVPSSKEELDKELPVLKPYFITNPEEAGVREAGLRVTWLGHATVMVEMDELIFLTDPIFSSRASPSQYMGPKRFRRSPCTISELPPIDAVLISHNHYDHLDYNSVIALNERFGNELRWFVPLGLLDWMQKCGCENVIELDWWEENCVPGHDKVTFVFTPSQHWCKRTLMDDNKVLWGSWSVLGPWNRFFFAGDTGYCPAFEEIGKRFGPFDLAAIPIGAYEPRWFMKYQHVDPEEAVRIHTDVQTKKSMAIHWGTFALANEHYLEPPVKLNEALERYGLNAEDFFVLKHGESRYLNNDDENF
stoichiometry N: 2
